# From patent US20230331868A1 (Seagen, published 2023)
# Key:
# [1] = target: T1, bovine submaxillary mucin (bovine); assay: ELISA on BSM-coated wells; periodate-sensitive signal
# T1 construct: Natural mucin preparation; also called BSM
# Experimental: (§1) For BSM ELISA analysis, antibodies were screened over a concentration range of 0 to 100 nM on bovine submaxillary mucin (BSM) coated wells. A subset of wells were treated with mild periodate solution before antibody binding to remove the side chain on terminal sialic acid residues (destroying the STn antigen). Optical densities of periodate and non-periodate-treated wells were determined and log transformed then fit to a nonlinear regression model to obtain a dose response curve. Optical density values obtained from periodate-treated wells were subtracted from non-periodate treated wells to obtain a periodate-sensitive STn binding curve and corresponding EC₅₀ values.
# [2] = target: T1, bovine submaxillary mucin; assay: ELISA on BSM-coated wells; antibody from one liter production
# Experimental: as §1
# Based on the results of characterization experiments, two antibodies from each clone group were selected for one liter expression and resulting antibodies were tested again according to the same procedures (see results presented in the following Table).
Binder,EC50 [1],EC50 [2]
"Humanized 2G12-2B2 VL2,VH2 (antibody, V domains shown, also called Hu2G12-2B2,L2H2; Hu2G12-2B2 L2H2) VH: QVQLVQSGAEVKKPGASVKISCKASGYTFTDHAIHWVRQAPGQGLEWIGYFSPGNDDIKYNEKFRGRVTLTADKSSSTAYMELRSLRSDDTAVYFCKRSLSTPYWGQGTLVTVSS VL: DIVMTQSPDSLAVSLGERVTMSCKSSQSLLNRGNHKNYLTWYQQKPGQPPKLLIYWASTRESGVPDRFSGSGSGTDFTLTISSLQAEDVAVYYCQNDYTYPYTFGQGTKVEIK",2.9 nM,1.82 nM
"Humanized 3F1 VL1,VH1 (antibody, V domains shown, also called Hu3F1,L1H1; Hu3F1 L1H1) VH: QVQLVQSGAEVKKPGASVKVSCKASGYTFTDHAIHWVRQAPGQGLEWMGYISPGNGDIKYNEKFKDRVTMTADKSSSTAYMQLRSLRSDDTAVYFCKRSLLALDYWGQGTLVTVSS VL: DIQMTQSPSSLSASVGDRVTITCKASQDVGTNIAWYQQKPGKAPKVLIYSASTRHTGVPSRFSGSGSGTDFTLTISSLQPEDFATYFCQQYSSFPLTFGQGTKVEIK",1.8 nM,0.86 nM
